Laboratory results as given in article PMC6248932.

Key:
[1] = target: BG505 SOSIP.664 gp140 trimer (HIV-1 (clade A, strain BG505)) (UniProt Q2N0S6); experiment: SEC
[2] = target: BG505 SOSIP.664 gp140 trimer (HIV-1 (clade A, strain BG505)) (UniProt Q2N0S6); experiment: native gel or EMSA
[3] = target: BG505 UFO gp140 trimer (HIV-1 (clade A, strain BG505)); experiment: SEC
[4] = target: BG505 UFO gp140 trimer (HIV-1 (clade A, strain BG505)); experiment: native gel or EMSA
[5] = target: clade B tier 3 H078.14 UFO-BG gp140 trimer (HIV-1 (clade B, strain H078.14) | HIV-1 (clade A, strain BG505)); experiment: crystal structure

With “BG505 SOSIP.664 gp140 trimer (from UniProt Q2N0S6 31-505) (complex)” the stoichiometry N [1] was 3 and the stoichiometry N [2] was 3.

BG505 UFO gp140 trimer was tested, and the stoichiometry N [3] was 3 and the stoichiometry N [4] was 3.

“clade B tier 3 H078.14 UFO-BG gp140 trimer” was tested, and the stoichiometry N [5] was 3.
